In US20190153112A1 (IMMUTEP S A S, published 2019):

Experiments:
[1] = molecular target: IMP321 (recombinant soluble human LAG-3Ig fusion protein) (human) (UniProt P18627); experiment: cell-based or functional assay
[2] = molecular target: human LAG-3 protein (Lymphocyte activation gene-3) on the cell surface (human) (UniProt P18627); experiment: flow cytometry on LAG-3-transfected CHO cells; antibody 0.4 ng/ml
[3] = molecular target: human LAG-3 protein (Lymphocyte activation gene-3) on the cell surface (human) (UniProt P18627); experiment: flow cytometry on LAG-3-transfected CHO cells; antibody 2000 ng/ml
[4] = molecular target: IMP321 (recombinant soluble human LAG-3Ig fusion protein) (human) (UniProt P18627); experiment: Biacore, LAG-3Ig on the chip and 17B4 antibody in the running buffer
[5] = molecular target: IMP321 (recombinant soluble human LAG-3Ig fusion protein) (human) (UniProt P18627); experiment: Biacore, 17B4 antibody on the chip and LAG-3Ig in the running buffer
[6] = molecular target: human LAG-3 protein (Lymphocyte activation gene-3) on the cell surface (human) (UniProt P18627); experiment: flow cytometry on CD8+ cells of SEB-stimulated PBMCs, mean of three donors
[7] = molecular target: human LAG-3 protein (Lymphocyte activation gene-3) on the cell surface (human) (UniProt P18627); experiment: flow cytometry on CD4+ cells of SEB-stimulated PBMCs (Donor 1), from Table 13
[8] = molecular target: human LAG-3 protein (Lymphocyte activation gene-3) on the cell surface (human) (UniProt P18627); experiment: flow cytometry on CD8+ cells of SEB-stimulated PBMCs (Donor 1), from Table 13
[9] = molecular target: human LAG-3 protein (Lymphocyte activation gene-3) on the cell surface (human) (UniProt P18627); experiment: flow cytometry on CD4+ cells of SEB-stimulated PBMCs (Donor 1); antibody 7 ng/ml
[10] = molecular target: human LAG-3 protein (Lymphocyte activation gene-3) on the cell surface (human) (UniProt P18627); experiment: flow cytometry on CD8+ cells of SEB-stimulated PBMCs (Donor 1); antibody 7 ng/ml
[11] = molecular target: human LAG-3 protein (Lymphocyte activation gene-3) on the cell surface (human) (UniProt P18627); experiment: flow cytometry on CD4+ cells of SEB-stimulated PBMCs (Donor 1); antibody 29 ng/ml
[12] = molecular target: human LAG-3 protein (Lymphocyte activation gene-3) on the cell surface (human) (UniProt P18627); experiment: flow cytometry on CD8+ cells of SEB-stimulated PBMCs (Donor 1); antibody 29 ng/ml
[13] = molecular target: human LAG-3 protein (Lymphocyte activation gene-3) on the cell surface (human) (UniProt P18627); experiment: flow cytometry on CD4+ cells of SEB-stimulated PBMCs (Donor 1); antibody 0.4 ng/ml
[14] = molecular target: human LAG-3 protein (Lymphocyte activation gene-3) on the cell surface (human) (UniProt P18627); experiment: flow cytometry on CD4+ cells of SEB-stimulated PBMCs (Donor 1); antibody 1.6 ng/ml
[15] = molecular target: human LAG-3 protein (Lymphocyte activation gene-3) on the cell surface (human) (UniProt P18627); experiment: flow cytometry on CD4+ cells of SEB-stimulated PBMCs (Donor 1); antibody 541 ng/ml
[16] = molecular target: human LAG-3 protein (Lymphocyte activation gene-3) on the cell surface (human) (UniProt P18627); experiment: flow cytometry on CD8+ cells of SEB-stimulated PBMCs (Donor 1); antibody 0.4 ng/ml
[17] = molecular target: human LAG-3 protein (Lymphocyte activation gene-3) on the cell surface (human) (UniProt P18627); experiment: flow cytometry on CD8+ cells of SEB-stimulated PBMCs (Donor 1); antibody 1.6 ng/ml
[18] = molecular target: human LAG-3 protein (Lymphocyte activation gene-3) on the cell surface (human) (UniProt P18627); experiment: flow cytometry on CD8+ cells of SEB-stimulated PBMCs (Donor 1); antibody 126 ng/ml
[19] = molecular target: human LAG-3 protein (Lymphocyte activation gene-3) on the cell surface (human) (UniProt P18627); experiment: flow cytometry on CD8+ cells of SEB-stimulated PBMCs (Donor 1); antibody 541 ng/ml
[20] = molecular target: human LAG-3 protein (Lymphocyte activation gene-3) on the cell surface (human) (UniProt P18627); experiment: flow cytometry on CD4+ cells of SEB-stimulated PBMCs (Donor 1); antibody 2326 ng/ml
[21] = molecular target: human LAG-3 protein (Lymphocyte activation gene-3) on the cell surface (human) (UniProt P18627); experiment: flow cytometry on LAG-3-transfected CHO cells; antibody 0 ng/ml (no-antibody background)
[22] = molecular target: human LAG-3 protein (Lymphocyte activation gene-3) on the cell surface (human) (UniProt P18627); experiment: flow cytometry on CD8+ cells of SEB-stimulated PBMCs (Donor 1); antibody 0 ng/ml (no-antibody background)
[23] = molecular target: IMP321 (recombinant soluble human LAG-3Ig fusion protein) (human) (UniProt P18627); experiment: FACS, LAG-3Ig-Alexa 488 (1 µg/ml) pre-incubated with antibody 27 ng/ml, then bound to Raji (MHC class II+) cells
[24] = molecular target: IMP321 (recombinant soluble human LAG-3Ig fusion protein) (human) (UniProt P18627); experiment: FACS, LAG-3Ig-Alexa 488 (1 µg/ml) pre-incubated with antibody 89 ng/ml, then bound to Raji (MHC class II+) cells
[25] = molecular target: IMP321 (recombinant soluble human LAG-3Ig fusion protein) (human) (UniProt P18627); experiment: FACS, LAG-3Ig-Alexa 488 (1 µg/ml) with antibody 0 ng/ml (no-antibody value), bound to Raji (MHC class II+) cells
[26] = molecular target: IMP321 (recombinant soluble human LAG-3Ig fusion protein) (human) (UniProt P18627); experiment: FACS, LAG-3Ig-Alexa 488 (1 µg/ml) pre-incubated with antibody 990 ng/ml, then bound to Raji (MHC class II+) cells
[27] = molecular target: IMP321 (recombinant soluble human LAG-3Ig fusion protein) (human) (UniProt P18627); experiment: FACS, LAG-3Ig-Alexa 488 (1 µg/ml) pre-incubated with antibody 11000 ng/ml, then bound to Raji (MHC class II+) cells

Sequence of human LAG-3 protein (Lymphocyte activation gene-3) on the cell surface (human) (P18627 other isoform, or with tags, fused parts or gaps): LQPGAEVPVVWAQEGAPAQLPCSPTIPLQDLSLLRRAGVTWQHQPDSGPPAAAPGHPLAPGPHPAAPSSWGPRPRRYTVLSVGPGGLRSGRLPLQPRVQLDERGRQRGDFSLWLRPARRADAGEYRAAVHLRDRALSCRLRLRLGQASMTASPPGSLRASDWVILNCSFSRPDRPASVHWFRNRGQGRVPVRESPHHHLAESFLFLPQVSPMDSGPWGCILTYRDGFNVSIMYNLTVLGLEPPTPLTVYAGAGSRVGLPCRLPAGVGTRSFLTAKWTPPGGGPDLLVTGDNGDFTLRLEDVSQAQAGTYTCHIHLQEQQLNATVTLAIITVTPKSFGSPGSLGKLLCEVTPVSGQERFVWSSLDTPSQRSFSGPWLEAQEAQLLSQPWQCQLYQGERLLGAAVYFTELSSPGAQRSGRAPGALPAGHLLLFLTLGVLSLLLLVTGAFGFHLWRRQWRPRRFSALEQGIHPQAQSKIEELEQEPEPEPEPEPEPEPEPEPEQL
Sequence of IMP321 (recombinant soluble human LAG-3Ig fusion protein) (human) (P18627 23-450): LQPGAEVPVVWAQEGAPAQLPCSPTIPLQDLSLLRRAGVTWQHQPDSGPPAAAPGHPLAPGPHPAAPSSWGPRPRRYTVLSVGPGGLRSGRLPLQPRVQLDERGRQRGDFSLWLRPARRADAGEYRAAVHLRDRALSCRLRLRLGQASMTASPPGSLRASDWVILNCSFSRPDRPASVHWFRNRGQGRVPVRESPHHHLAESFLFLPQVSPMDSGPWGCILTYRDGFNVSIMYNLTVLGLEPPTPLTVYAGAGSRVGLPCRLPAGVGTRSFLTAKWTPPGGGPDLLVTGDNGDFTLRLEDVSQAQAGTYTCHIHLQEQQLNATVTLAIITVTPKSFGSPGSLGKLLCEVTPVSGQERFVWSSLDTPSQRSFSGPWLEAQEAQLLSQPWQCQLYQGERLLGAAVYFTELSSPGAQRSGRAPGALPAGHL

Substance: antagonistic anti-LAG-3 mouse monoclonal antibody 17B4
- [CCL4] in THP-1 monocytic cells supernatant; IMP321 20 ng/ml pre-incubated with antibody 2 ng/ml [1]: 1960 pg/mL
- [CCL4] in THP-1 monocytic cells supernatant; IMP321 20 ng/ml pre-incubated with antibody 20 ng/ml [1]: 1550 pg/mL
- [CCL4] in THP-1 monocytic cells supernatant; IMP321 20 ng/ml pre-incubated with antibody 200 ng/ml [1]: 860 pg/mL
- [CCL4] in THP-1 monocytic cells supernatant; IMP321 20 ng/ml pre-incubated with antibody 2000 ng/ml [1]: 947 pg/mL
- [CCL4] in THP-1 monocytic cells supernatant; IMP321 20 ng/ml pre-incubated with antibody 20000 ng/ml [1]: 860 pg/mL
- [CCL4] in THP-1 monocytic cells supernatant; IMP321 20 ng/ml, antibody 0 ng/ml (no-antibody value) [1]: 2110 pg/mL
- MFI [2]: 179 MFI
- MFI [3]: 5480 MFI
- Kd [4]: 121 pM
- koff [4]: 0.000132 s⁻¹
- kon [4]: 1.09e+06 M⁻¹ s⁻¹
- Ka [5]: 2.71e+08 M⁻¹
- Kd [5]: 3690 pM
- koff [5]: 0.000818 s⁻¹
- kon [5]: 222000 M⁻¹ s⁻¹
- EC50 [6]: 1000 pM
- EC50 [7]: 500 pM
- EC50 [8]: 700 pM
- MFI [9]: 324 MFI
- MFI [10]: 606 MFI
- MFI [11]: 675 MFI
- MFI [12]: 1400 MFI
- MFI [13]: 143 MFI
- MFI [14]: 192 MFI
- MFI [15]: 1750 MFI
- MFI [16]: 195 MFI
- MFI [17]: 309 MFI
- MFI [18]: 2840 MFI
- MFI [19]: 4090 MFI
- MFI [20]: 1940 MFI
- MFI [21]: 156 MFI
- MFI [22]: 112 MFI
- MFI of sLAG-3Ig-Alexa 488 [23]: 260 MFI
- MFI of sLAG-3Ig-Alexa 488 [24]: 214 MFI
- MFI of sLAG-3Ig-Alexa 488 [25]: 284 MFI
- MFI of sLAG-3Ig-Alexa 488 [26]: 35 MFI
- MFI of sLAG-3Ig-Alexa 488 [27]: -11 MFI
